In patent US20260191907A1 (INSTITUT CURIE, published 2026) one finds binding result and koff data, which are given here for 4 molecules.

For assay [1], the target named is T1, FGFR2 expressed on Rh4-FR4ko cells (UniProt P21802 22-821, limits assumed).
T1 construct: whole, on cells; also called FGFR2 on Rh4 cells
Put plainly: flow cytometry on Rh4-FR4ko cells, which express FGFR1 and FGFR2. How it is done: The cells were incubated for 1 h with nanobodies at 10 μM (A8, B1, B5, F8, mCh) followed by stimulation of FGFR4 with 50 nM FGF19 for 10 min. Control cells (C) were either not stimulated or stimulated with FGF19 in absence of the nanobodies. The cell lysates were analysed by western blot with anti phospho ERK1/2 antibody. Total Erk1/2 levels are shown as loading control.
Binding validation of selected phages, recombinant nanobodies and decorated liposomes was performed on Rh4-FR4 wt and Rh4-FR4ko cells. Specificity of selected phage clones binding to FGFR4 was determined by flow cytometry in 96-well plates (Becton Dickinson). Cell surface staining of Rh4-FR4 wt or Rh4-FR4ko cells was performed on ice in PBS supplemented with 1% FBS. 80 μL phages+20 μL PBS/1% milk were incubated on 1×10⁵ cells for 1 h on ice. […] Samples were analyzed after two washes by flow cytometry on a MACSQuant® cytometer (Miltenyi) and results were analyzed with FlowJo™ software (BD Biosciences, France). Phages displaying anti-mCherry nanobodies were used as negative control²⁴ and as positive control we used an anti-FGFR4 antibody (BT53, kindly provided by J. Khan lab, NCI, Bethesda, MD). For binding test of recombinant nanobodies, cells were detached with Accutase® (Stemcell Technologies) and washed with PBS. All following steps were performed on ice: 4×10⁵ cells were incubated with nanobody concentrations of 30 μg/ml for 1 h, washed once with PBS and incubated for an additional 30 min with anti His-tag FITC labeled antibody (LS-C57341, LSBioscience, diluted 1:10). The cells were washed once more with PBS and analyzed. Targeting liposomes were added at 0.5 mM final lipid concentration to cells in 96-well plates and incubated for 2 h at 37° C. and 5% CO₂. The cells were washed twice with PBS and detached with Accutase®.
Validation of the binding of recombinant nanobodies to cell-surface expressed FGFR4 was performed with Rh4-FR4 wt and Rh4-FR4ko cells by flow cytometry.
For orientation: A flow cytometer gives signals particle by particle.

The target of assay [2] is T2, Recombinant FGFR1 (G&P Biosciences) (UniProt P11362 22-376, limits assumed).
T2 construct: Immobilised on the SPR chip
T2 sequence (looked up): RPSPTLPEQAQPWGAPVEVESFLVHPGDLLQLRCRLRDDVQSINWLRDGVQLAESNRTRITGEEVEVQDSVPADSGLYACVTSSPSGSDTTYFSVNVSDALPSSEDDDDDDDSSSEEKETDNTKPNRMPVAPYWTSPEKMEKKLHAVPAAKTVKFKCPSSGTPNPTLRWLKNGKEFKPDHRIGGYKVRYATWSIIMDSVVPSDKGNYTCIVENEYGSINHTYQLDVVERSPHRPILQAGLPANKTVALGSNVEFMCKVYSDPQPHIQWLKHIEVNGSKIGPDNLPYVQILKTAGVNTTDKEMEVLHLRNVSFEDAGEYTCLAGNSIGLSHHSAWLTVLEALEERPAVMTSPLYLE
Put plainly: SPR, FGFR1 immobilised, nanobody as analyte at five concentrations. The procedure:
Single cycle kinetics analysis was performed with the BIAcore® T200 instrument (GE Healthcare) on CMD200M sensor chips (XanTec bioanalytics GmbH) activated with a mixture of 300 mM NHS (N-hydroxysuccinimide) and 50 mM EDC (N-ethyl-N′-(dimethylaminopropyl) carbodiimide). Recombinant FGFR1, FGFR2, FGFR3 and FGFR4 (G&P Biosciences) were immobilized on the activated biosensors (800 to 12′000 RU; 1 RU=1 pg/mm²) followed by a blocking step with 1M ethanolamine. One flow channel per chip was used as a reference to provide background corrections. The nanobodies were injected at 5 different concentrations followed by a dissociation phase. Koff-rates were determined from a final dissociation step after the last injection. The measurements with FGFR4 were performed for each nanobody on freshly immobilized protein due to strong binding and incomplete dissociation from the surface. Immobilization flow rate was 5 μl/min and binding studies were performed at 30 μl/min. Binding parameters were determined with the heterogeneous ligand model fit of the BIAevaluation software. The black curves represent the measured data and red curves show the performed fit analysis.
To determine the binding affinity of the nanobodies to FGFR4, we performed surface plasmon resonance (SPR) spectroscopy with recombinant FGFR4. As already mentioned above, FGFR1 and FGFR2 are expressed on Rh4-FR4ko cells and flow cytometry analysis indicated no binding of the nanobodies to the cells. To further confirm FGFR4-specificity, we included also affinity measurements with recombinant FGFR1, FGFR2 and FGFR3. Nanobodies A8, B1, B5, F8, and mCh were injected in five different concentrations on a FGFR coated chip. Except for the negative control mCh, calculated KD values for FGFR4 binding were in the nano- and picomolar range (FIG. 3; Table 2). Affinity parameters could not be fitted with a 1:1 binding model and best fits were obtained with the heterogeneous ligand model of the BIAevaluation software resulting in two KD values for each candidate.
On the technique in general: SPR reads the build-up and loss of mass on a sensor chip optically.

Assay [3] deals with T3, Recombinant FGFR4 (G&P Biosciences) (human, UniProt P22455 22-369).
T3 construct: Bought protein; the SPR method says only 'Recombinant; also called rFGFR4; extracellular FGFR4
T3 sequence: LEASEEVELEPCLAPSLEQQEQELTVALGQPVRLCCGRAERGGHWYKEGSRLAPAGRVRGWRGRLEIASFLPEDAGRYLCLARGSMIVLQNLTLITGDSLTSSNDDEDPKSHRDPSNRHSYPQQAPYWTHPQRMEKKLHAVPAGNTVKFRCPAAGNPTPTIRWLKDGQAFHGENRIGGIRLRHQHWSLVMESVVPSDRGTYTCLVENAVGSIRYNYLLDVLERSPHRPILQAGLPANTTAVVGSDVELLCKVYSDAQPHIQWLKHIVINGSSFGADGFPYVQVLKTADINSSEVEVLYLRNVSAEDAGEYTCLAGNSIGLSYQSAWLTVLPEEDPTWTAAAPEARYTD
Put plainly: SPR (BIAcore T200), single cycle kinetics, FGFR4 amine-immobilised, nanobody as analyte, heterogeneous ligand model, component 2 (koff2); heterogeneous ligand model, component 2 (koff2). How it is done:
FIG. 3: Affinity determination of nanobodies to recombinant protein via surface plasmon resonance spectroscopy. Single cycle kinetics analysis was performed on immobilized FGFR4 through covalent amine binding on the dextran based sensor chip. The analytes A8, B1, B5, F8 and mCh were injected in 5 different concentrations followed by a dissociation phase. A final dissociation step was added after the last injection step to determine Koff rates for the KD calculations. The black curves represent the measured data and red curves show the fit analysis (heterogeneous ligand model) performed with the BIAevaluation software.
Single cycle kinetics analysis was performed with the BIAcore® T200 instrument (GE Healthcare) on CMD200M sensor chips (XanTec bioanalytics GmbH) activated with a mixture of 300 mM NHS (N-hydroxysuccinimide) and 50 mM EDC (N-ethyl-N′-(dimethylaminopropyl) carbodiimide). Recombinant FGFR1, FGFR2, FGFR3 and FGFR4 (G&P Biosciences) were immobilized on the activated biosensors (800 to 12′000 RU; 1 RU=1 pg/mm²) followed by a blocking step with 1M ethanolamine. […] Koff-rates were determined from a final dissociation step after the last injection. […] Binding parameters were determined with the heterogeneous ligand model fit of the BIAevaluation software. The black curves represent the measured data and red curves show the performed fit analysis. […]

T1 sequence (P21802 22-821 limits assumed): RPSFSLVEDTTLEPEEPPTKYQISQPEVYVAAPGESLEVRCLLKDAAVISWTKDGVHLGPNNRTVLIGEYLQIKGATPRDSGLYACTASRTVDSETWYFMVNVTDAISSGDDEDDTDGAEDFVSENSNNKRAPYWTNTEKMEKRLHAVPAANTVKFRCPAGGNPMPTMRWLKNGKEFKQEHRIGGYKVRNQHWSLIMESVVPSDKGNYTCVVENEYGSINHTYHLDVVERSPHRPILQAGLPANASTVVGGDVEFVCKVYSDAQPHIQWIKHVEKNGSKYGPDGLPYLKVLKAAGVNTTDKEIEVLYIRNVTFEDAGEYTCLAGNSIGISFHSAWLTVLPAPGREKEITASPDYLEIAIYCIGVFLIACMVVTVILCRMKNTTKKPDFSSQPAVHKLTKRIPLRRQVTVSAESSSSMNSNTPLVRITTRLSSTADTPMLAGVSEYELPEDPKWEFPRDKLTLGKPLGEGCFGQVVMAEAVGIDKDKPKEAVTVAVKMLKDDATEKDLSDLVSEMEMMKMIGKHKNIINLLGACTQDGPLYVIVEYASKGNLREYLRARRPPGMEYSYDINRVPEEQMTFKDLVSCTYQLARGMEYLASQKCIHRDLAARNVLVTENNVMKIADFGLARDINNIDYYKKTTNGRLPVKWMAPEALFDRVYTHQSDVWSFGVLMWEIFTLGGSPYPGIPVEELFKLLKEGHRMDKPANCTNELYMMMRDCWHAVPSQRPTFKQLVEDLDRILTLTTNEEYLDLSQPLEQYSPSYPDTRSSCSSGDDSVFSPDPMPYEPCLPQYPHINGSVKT

B1: F8 nanobody (anti-FGFR4 sdAb, Gimli library) (VHH)
VHH: EVQLVESGGGLVQPGGSLRLSCAASGTGYALDDMGWVRQAPGKGLEWVSAISDDESMADYYADSVKGRFTISRDNSKNTVYLQMNSLRAEDTAVYYCASYKEYKYQSGHHYFAYRGQGTLVTVSS
notes: Recombinant nanobody of about 17 kDa; also called F8 sdAb; not shown: C-terminal Myc/6xHis-tag and an additional cysteine
Turning to B1, the results for the binding result in assay [1] and in assay [2] were “no binding (tested: 30 µg/ml)” and “no binding”, respectively.

B2: A8 nanobody (anti-FGFR4 sdAb, NaLi-H1 library) (VHH)
VHH: EVQLQASGGGFVQPGGSLRLSCAASGRTYSRDTMGWFRQAPGKEREFVSAISSRHSHTTYYADSVKGRFTISRDNSKNTVYLQMNSLRAEDTATYYCAEWDVFDMHYALPPMWYWGQGTQVTVSS
notes: also called A8 sdAb; not shown: C-terminal Myc/6xHis-tag and an additional cysteine
Consider B2, for which, in assay [2], the binding result is listed as “no binding”.

B3: B1 nanobody (anti-FGFR4 sdAb, NaLi-H1 library) (VHH)
VHH: EVQLQASGGGFVQPGGSLRLSCAASGYTSRSSAMGWFRQAPGKEREFVSAISDLTGYPYYYADSVKGRFTISRDNSKNTVYLQMNSLRAEDTATYYCAAYQDDKWTYGSQHGKYWGQGTQVTVSS
notes: also called B1 sdAb; not shown: C-terminal Myc/6xHis-tag and an additional cysteine
Turning to B3, the binding result is “no binding (tested: 30 µg/ml)” in assay [1] and “no binding” in assay [2].

B4: B5 nanobody (anti-FGFR4 sdAb, NaLi-H1 library) (VHH)
VHH: EVQLQASGGGFVQPGGSLRLSCAASGRTSWLTTMGWFRQAPGKEREFVSAISSFSSKQGYYADSVKGRFTISRDNSKNTVYLQMNSLRAEDTATYYCAYASYPRHQGNGRWKDFVEYWGQGTQVTVSS
notes: Recombinant nanobody of about 17 kDa; also called B5 sdAb; not shown: C-terminal Myc/6xHis-tag and an additional cysteine
A word on the koff: it is a measure of how fast the partners let go of each other. As to B4, the binding result in assay [2] is listed as “no binding”. Moreover, the koff in assay [3] was 3.75e-08 s⁻¹.
